Measurements as given in US11618906B2, “Hydroxylation techniques” (HYPHA DISCOVERY LTD., priority 2018, dated 2023).

How the values were obtained:
Assay type in all cases: biochemical
[1] = Metabolism of celecoxib by P450 aluC09 and mutants; settings: percent of substrate being converted; 0.125 mg/ml, 27° C., 16-20 hours; [CYP] per enzyme as in Table 8
Description: (§1) Lyophilised material of mutants of CYP450aluC09, ferredoxinaluF03 and ferredoxin reductaseSCF15A was made as described in examples 3 and 4 and suspended in water (0.5 mL per vial) and biocatalysis was performed at 27° C. in the following conditions: 50 mM potassium phosphate pH 7.4, 5 mM MgCl2, 0.125 mg/ml substrate compound such as diclofenac (Sigma-Aldrich, UK), Aceclofenac (Tokyo Chemical Industry UK Ltd, UK), Indomethacin (Sigma-Aldrich, UK), Flufenamic acid (Sigma-Aldrich, UK), Napropamide (Sigma-Aldrich, UK), celecoxib (LC Laboratories, USA), valsartan (Tokyo Chemical Industry UK Ltd, UK), ruxolitinib (LC Laboratories, USA), 4-pyrrolidylacetophenone (Sigma-Aldrich, UK), tofacitinib (LC Laboratories, USA), bosentan (CarboSynth Ltd, UK), buparvaquone (MedChemtronica, Sweden), BIRB796 (Stratech Scientific Limited, UK), epothilone B (LC Laboratories, USA), ritonavir (Tokyo Chemical Industry UK Ltd, UK) or tivantinib (MedChemtronica, Sweden), P450AluC09 (concentration as in Table 8), 5 mM G6P, 1 mM NADP, 2 UN/ml G6PDH in a final volume of 100 μL. After 16-20 hours at 200 rpm (5 cm orbital shaker, Kuhner AG, Switzerland), reactions were extracted with an equal volume of acetonitrile, centrifuged to remove precipitated proteins and conversion assessed by UPLC-MS analysis.
(§2) However, of particular note when considering P450 concentration are the results for mutants M12, M20 and M34, as well as the deleterious impact on the range of substrate utility in mutants M39 and M40.

[2] = Metabolism of epothilone B by P450 aluC09 and mutants; settings: percent of substrate being converted; 0.125 mg/ml, 27° C., 16-20 hours; [CYP] per enzyme as in Table 8
Description: as §1, §2

[3] = Metabolism of ritonavir by P450 aluC09 and mutants; settings: percent of substrate being converted; 0.125 mg/ml, 27° C., 16-20 hours; [CYP] per enzyme as in Table 8
Description: as §1, §2

[4] = Metabolism of tofacitinib by P450 aluC09 and mutants; settings: percent of substrate being converted; 0.125 mg/ml, 27° C., 16-20 hours; [CYP] per enzyme as in Table 8
Description: as §1, §2

[5] = Metabolism of bosentan by P450 aluC09 and mutants; settings: percent of substrate being converted; 0.125 mg/ml, 27° C., 16-20 hours; [CYP] per enzyme as in Table 8
Description: as §1, §2

[6] = Hydroxylation of aceclofenac catalysed by cytochrome P450 aluC09 and mutants
Description: as §1
(§3) UPLC data was obtained as follows:
(§4) Column: Acquity UPLC BEH Shield RP18 1.7 μm 2.1 mm i.d. 50 mm length
(§5) Solvents: H2O, B: Acetonitrile, both with 0.1% Formic acid
(§6) Detector: Waters Acquity UPLC PDA (UV-Vis detection) and Waters Acquity UPLC QDA (MS)
Chromatograms are provided in FIGS. 5a-c; aceclofenac elutes at 1.80 minutes, hydroxy-aceclofenac acid 1 elutes at 1.64 minutes, hydroxy-aceclofenac acid 2 elutes at 1.60 minutes and dihydroxy-aceclofenac elutes at 1.42 minutes.

[7] = O-demethylation of indomethacin catalysed by cytochrome P450 aluC09 and mutants; settings: % by UV peak area at 275 nm; 0.125 mg/ml substrate, 27° C., 16-20 hours
Description: as §1, §3, §4, §5, §6

[8] = Metabolism of ruxolitinib by P450 aluC09 and mutants; settings: percent of substrate being converted; 0.125 mg/ml, 27° C., 16-20 hours; [CYP] per enzyme as in Table 8
Description: as §1, §2

[9] = Metabolism of valsartan by P450 aluC09 and mutants; settings: percent of substrate being converted; 0.125 mg/ml, 27° C., 16-20 hours; [CYP] per enzyme as in Table 8
Description: as §1, §2

[10] = Hydroxylation of diclofenac catalysed by cytochrome P450 aluC09 and mutants (UPLC-PDA-MS)
Description: as §1, §3, §4, §5, §6
Illustrative results for the hydroxylation of diclofenac by CYP450aluC09 and selected T291x mutants are summarised below in Table 3 with representative chromatograms resented in FIG. 3a-c; retention times: diclofenac 1.85-1.88 minutes, 5-hydroxydiclofenac 1.60-1.63 minutes, 4′-hydroxydiclofenac 1.65-1.68 minutes, 4′,5-dihydroxydiclofenac 1.40-1.42 minutes. The chromatographic retention times and mass spectra coincided with those of authentic samples.

[11] = Hydroxylation of flufenamic acid catalysed by cytochrome P450 aluC09 and mutants
Description: as §1, §3, §4, §5, §6
Flufenamic acid elutes at 1.93 minutes, hydroxy-flufenamic acid 1 elutes at 1.68 minutes and hydroxy-flufenamic acid 2 elutes at 1.65 minutes.

[12] = Metabolism of BIRB796 by P450 aluC09 and mutants; settings: percent of substrate being converted; 0.125 mg/ml, 27° C., 16-20 hours; [CYP] per enzyme as in Table 8
Description: as §1, §2

[13] = Metabolism of 4-pyrrolidylacetophenone by P450 aluC09 and mutants; settings: percent of substrate being converted; 0.125 mg/ml, 27° C., 16-20 hours; [CYP] per enzyme as in Table 8
Description: as §1, §2

[14] = Metabolism of tivantinib by P450 aluC09 and mutants; settings: percent of substrate being converted; 0.125 mg/ml, 27° C., 16-20 hours; [CYP] per enzyme as in Table 8
Description: as §1, §2

[15] = % by UV peak area at 275 nm, 0.125 mg/ml substrate, 27° C., 16-20 hours

| Molecule | % conversions (avg) Celecoxib [1] [%] | % conversions (avg) Epothilone B [2] [%] | % conversions (avg) Ritonavir [3] [%] | % conversions (avg) Tofacitinib [4] [%] | % conversions (avg) Bosentan [5] [%] | % conversions (avg) Ruxolitinib [8] [%] | % conversions (avg) Valsartan [9] [%] | % conversions (avg) 4-pyrrolidylacetophenone [13] [%] | % conversions (avg) Tivantinib [14] [%] | other results |
| --- | --- | --- | --- | --- | --- | --- | --- | --- | --- | --- |
| aluC09M24: cytochrome P450 aluC09 double mutant T291E, A47I; amino acid sequence SEQ ID NO: 84 (protein, listed as Amycolatopsis lurida) MTDVEETTATLPLARKCPFSPPPEYERLRRESPVSRVGLPSGQTAWILTRLEDIREMLSSPHFSSDRQSPSFPLMVARQIRREDKPFRPSLIAMDPPEHSRARRDVVGEFTVKRMKALQPRIQQIVDEHLDALLAGPKPADLVQALSLPVPSLVICELLGVPYSDHEFFQSCSSRMLSREVTAEERMTAFEQLENYLDELVTKKEANATEDDLLGRQILKQRETGEADHGELVGLAFLLLIAGHETTANMISLGTVTLLENPDQLAKIKADPGKTLAAIEELLRVFTIAEEATSRFATADVEIGGTLIRAGEGVVGLSNAGNHDPDGFENPDTFDIERGARHHVAFGFGVHQCLGQNLARLELQIVFDTLFRRVPGLRIAVPVDELPFKHDSTIYGLHALPVTW | 3.6 | 52.3 | 30.4 | 0 | 100 | 37.7 | 21.2 | 7.6 | 6.8 | Aceclofenac (Substrate) (1.80 mins) [6, 15]: 63.4%; Dihydroxy-Aceclofenac (1.42 mins) [6, 15]: 5.0%; Hydroxy-Aceclofenac (1) (1.64 min) [6, 15]: 14.3%; Hydroxy-Aceclofenac (2) (1.60 min) [6, 15]: 17.4%; Hydroxylated Ratio 2:1 ([6]; aceclofenac, ratio of UV peak areas at 275 nm): 1.2; Indomethacin (1.74 mins) [7]: 94.2%; O-demethyl-Indomethacin (1.52 mins) [7]: 5.8%; 4′,5-dihydroxy-diclofenac 1.38 mins [10, 15]: 1.8%; 4′-hydroxy-diclofenac (1) 1.62 mins [10, 15]: 34.2%; 5-hydroxy-diclofenac (2) 1.58 mins [10, 15]: 8.0%; Diclofenac (Substrate) 1.81 mins [10, 15]: 57.0%; regioselectivity of hydroxylation (product ratio 4′-hydroxydiclofenac : 5-hydroxydiclofenac) ([10]; diclofenac): over four-fold; Hydroxylated Ratio hydroxy 1:hydroxy 2 ([10]; diclofenac, ratio of UV peak areas at 275nm): 4.3; Flufenamic Acid (Substrate) 1.93 mins [11, 15]: 89.2%; Hydroxy-Flufenamic Acid (1) 1.69 mins [11, 15]: 7.7%; Hydroxy-Flufenamic Acid (2) 1.65 mins [11, 15]: 3.1%; Hydroxylated Ratio 1:2 ([11]; flufenamic acid, ratio of UV peak areas at 275 nm): 2.5; % conversions (avg) BIRB796 [12]: 18.9% |
| aluC09M21: cytochrome P450 aluC09 mutant T291Y; amino acid sequence SEQ ID NO: 32 (protein, listed as Amycolatopsis lurida) MTDVEETTATLPLARKCPFSPPPEYERLRRESPVSRVGLPSGQTAWALTRLEDIREMLSSPHFSSDRQSPSFPLMVARQIRREDKPFRPSLIAMDPPEHSRARRDVVGEFTVKRMKALQPRIQQIVDEHLDALLAGPKPADLVQALSLPVPSLVICELLGVPYSDHEFFQSCSSRMLSREVTAEERMTAFEQLENYLDELVTKKEANATEDDLLGRQILKQRETGEADHGELVGLAFLLLIAGHETTANMISLGTVTLLENPDQLAKIKADPGKTLAAIEELLRVFTIAEYATSRFATADVEIGGTLIRAGEGVVGLSNAGNHDPDGFENPDTFDIERGARHHVAFGFGVHQCLGQNLARLELQIVFDTLFRRVPGLRIAVPVDELPFKHDSTIYGLHALPVTW | 1 | 33.8 | 28.2 | 2.7 | 59 | 19 | 19 | 15.8 | 29.6 |  |
